From publication PMC5220579 (Molecular immunology, 2016) come the findings set out here.

The target of assay [1] is T1, human PVR (poliovirus receptor) (human, UniProt P15151 21-343).
T1 sequence (looked up): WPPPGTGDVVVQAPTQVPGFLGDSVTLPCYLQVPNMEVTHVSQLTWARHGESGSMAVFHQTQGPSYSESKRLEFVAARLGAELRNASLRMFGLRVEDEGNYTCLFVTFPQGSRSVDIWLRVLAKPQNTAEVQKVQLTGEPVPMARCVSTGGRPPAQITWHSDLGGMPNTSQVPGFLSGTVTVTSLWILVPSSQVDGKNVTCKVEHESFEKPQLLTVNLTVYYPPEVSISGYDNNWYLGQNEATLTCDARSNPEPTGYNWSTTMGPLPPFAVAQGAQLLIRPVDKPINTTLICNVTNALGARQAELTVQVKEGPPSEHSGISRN
The experiment in a line: SPR.

For assay [2], the target named is T2, IgV domain of human nectin-2 (human, UniProt Q92692 32-158).
T2 sequence: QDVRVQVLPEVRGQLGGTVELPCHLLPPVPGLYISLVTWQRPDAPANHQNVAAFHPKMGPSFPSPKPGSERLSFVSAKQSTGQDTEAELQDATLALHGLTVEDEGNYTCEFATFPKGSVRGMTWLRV
The experiment in a line: SPR. (SPR reads the build-up and loss of mass on a sensor chip optically.)

B1: IgV domain of human TIGIT (residues 22 to 137) (domain or fragment, UniProt Q495A1 22-137, looked up)
chain: MMTGTIETTGNISAEKGGSIILQCHLSSTTAQVTQVNWEQQDQLLAICNADLGWHISPSFKDRVAPGPGLGLTLQSLTVNDTGEYFCIYHTYPDGTYTGRIFLEVLESSVAEHGAR
Take B1: the Kd in assay [1] is 0.36 ± 0.025 µM; in assay [2] it was 11.5 ± 1.1 µM.

In general, Kd refers to the concentration at which binding is half-saturated. High values mean weaker binding, low ones tighter binding.
